Where “and” joins values, the source holds several entries; their conditions need not be identical. Equal entries are not always repeated.
Columns and labels:
[1] = stopped-flow tryptophan fluorescence, urea-induced dissociation kinetics; conditions: other: stopped-flow tryptophan fluorescence
[2] = target: Methionine S-adenosyltransferase (MAT) from U. urealiticum (U. urealiticum); experiment: SEC-MALS
[3] = target: Methionine S-adenosyltransferase (MAT) from U. urealiticum (U. urealiticum); experiment: SEC-MALS; remark: listed apart in the source
[4] = target: Methionine S-adenosyltransferase (MAT) from U. urealiticum (U. urealiticum); experiment: crystal structure
[5] = target: Methionine S-adenosyltransferase (MAT) from U. urealiticum (U. urealiticum); experiment: crystal structure; remark: listed apart in the source
[6] = target: Methionine S-adenosyltransferase (MAT) from U. urealiticum (U. urealiticum); experiment: native MS

stoichiometry N [2] | stoichiometry N [3] | stoichiometry N [4] | stoichiometry N [5] | stoichiometry N [6] | Substance | kobs of urea-induced tetramer dissociation (3 M urea, with SAM) [1]
– | – | – | – | – | Methionine S-adenosyltransferase (MAT) from U. urealiticum | kobs ∼ 0.1sec^-1
4 and 2 | 4 | 4 | 4 | 4 and 2 | Methionine S-adenosyltransferase (MAT) from U. urealiticum (enzyme) | –
